# Data taken from PMC5041007, “AglM and VNG1048G, Two Haloarchaeal UDP-Glucose Dehydrogenases, Show Different Salt-Related Behaviors” (Life, 2016).
# B1: Haloferax volcanii AglM, C-terminally polyhistidine-tagged (enzyme, UniProt D4GYH5 1-430, looked up)
# chain: MELSIIGSGYVGTTIAACFAELGHDVVNVDIDEDIVASLNDGQAPIHEPGLAELVERYAGDRLRATTDYDEILDTDATFLALPTPSTDDGSIDLGAMKTAATSLGETLARKDDSHLVVTKSTVVPRTTVDVIGPRIEEASGKRVGDGLDIAMNPEFLREGTAVDDFLSPDKIVLGAQTDRAYETLAEIFAPLVERAGNPPVVKTGISEAEMIKYANNAFLASKISLANDLANICKVFGVDSAEVLESIGLDSRIGSAFLGAGLGWGGSCFPKDTAAIIAAARAQGYEPRLLQAAVDVNDGQPERMLDLLRERFDLDGKRVAVLGLAFKPGTDDIRKSRAILLIQALLDAGADVVGYDPVATENMRERFPDIDYADSAADALANADAALVATDWDEFAALDDEFDAMRERIVIDGRRIVTRREGLDYESLV
# notes: AglM, UDP-glucose dehydrogenase of Haloferax volcanii, 430 residues; gene amplified from genomic DNA with primers at the start and end of the gene; Calculated mass of the His-tagged chain close to 47 kDa; also called His-tagged AglM; UDP-glucose dehydrogenase; source: Hfx. volcanii cells transformed with pHis-AglM, purified (Ni-NTA, then size-exclusion chromatography); not shown: polyhistidine, …
# Molecular target: the molecule itself
# Assay: SEC; Hi-Load Superdex 200 16/60 directly after Ni-NTA chromatography; 2 M NaCl, 5 mM MgCl2, 50 mM Tris-HCl, pH 9.2; 1 mL/min; masses from a calibration curve of marker proteins (12.4-200 kDa)
protein,measurement,value
B1,stoichiometry N,12
